Test results: patent US7923535B2, “Tryptophan as a functional replacement for ADP-ribose-arginine in recombinant proteins” (The United States of America as represented by the …, priority 2002, dated 2011)

Key:
A549 cells [1] = assay: Chromium release assay (defensin cytotoxicity); format: cell-based; settings: 1.5 to 24 μM, 18 hours, 37° C., serum-free RPMI; compared with unmodified HNP-1
Method: Chromium-labeled A549 cells (American Type Culture Collection) were incubated (18 hours, 37° C.) in 100 μl of serum-free RPMI (Gibco Fluids Inc., Rockville, Md.) containing HNP-1, ADP-ribosyl-HNP-1, or HNP-1 with either an R:W substitution or an R:F substitution (1.5 to 24 μM) to quantify defensin cytotoxicity. Cytotoxicity is measured as the amount of chromium released from the cells (Panyutich et al., “Human neutrophil defensins and serpins form complexes and inactivate each other,” Am. J. Respir. Cell. Mol. Biol. 12:351-357, 1995).

HNP-1 = molecular target: T1, HNP-1 (Homo sapiens, UniProt P59665); assay: Blocking of HNP-1 cytotoxic activity (radial diffusion and chromium release assays after pre-incubation with HNP-1); format: cell-based; settings: pre-incubated 1 hour at 37° C. with HNP-1 (100 nM, E. coli; 12 μM, chromium release)
T1 sequence (P59665 65-94 limits assumed): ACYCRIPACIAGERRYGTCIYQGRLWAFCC
Method: HNP-1 (100 nM) is incubated for 1 hour at 37° C. with ADP-ribosylated HNP-1, or HNP-1 with either an R:W substitution or an R:F substitution (0-800 nM) before the initiation of the cytotoxicity assay on E. coli.
HNP-1 (12 μM) is incubated with ADP-ribosyl-HNP-1, or HNP-1 with either an R:W substitution or an R:F substitution (1.5-12 μM) for 1 hour at 37° C. before the initiation of the chromium release assay.

A549 cells [2] = assay: IL-8 production by A549 cells (indirect ELISA); format: cell-based; settings: concentrations of 0.75 and 1.5 μM; 12 or 24 hours; compared with the unmodified peptide
Method: […] Culture medium is sampled after 12 or 24 hours of incubation and IL-8 content is assayed by indirect ELISA according to the manufacturer's instructions (R & D System Inc. Minneapolis, Minn.).

CD3^+ T-cells = assay: Chemotaxis assay; format: cell-based, human; settings: 0.025 to 25 nM in lower chamber, 4 hours, 37° C.
Method: CD3^+ T-cells are isolated from human peripheral blood prepared by leukapheresis (NIH, Department of Transfusion Medicine, Bethesda, Md.) (Chertov et al., J. Biol. Chem. 271:2935-2940, 1996) and suspended in migration medium (RPMI 1640, 0.5% bovine serum albumin, 25 mM HEPES). Inserts coated with collagen IV (Becton Dickinson Labware, Bedford, Mass.) are placed into 24-well culture plates to form upper and lower chambers in each well. Upper chambers are wetted with migration medium, then 500 μl of migration medium with or without ADP-ribosyl-HNP-1, HNP-1, or with HNP-1 with either an R:W substitution or an R:F substitution (0.025 to 25 nM) are added to the lower chamber. Cells are added to the upper chamber and plates are incubated at 37° C. in 5% CO2 for 4 hours. Lymphocytes that migrate to the lower chamber are harvested by centrifugation and counted in a hematocytometer.

[3] = tested on: Escherichia coli ATCC43827; settings: compared with unmodified HNP-1; see PCT/US03/04649; cited from earlier work

Substance: ADP-ribosylated HNP-1: human neutrophil peptide HNP-1 (alpha defensin) with ADP-ribosylated arginine
- cytotoxicity for A549 cells (chromium released) (A549 cells [1]): less cytotoxic than unmodified HNP-1
- effect on the cytotoxic activity of HNP-1 (HNP-1): blocks the cytotoxic activity of HNP-1 in a concentration-dependent manner
- IL-8 release (A549 cells [2]): significantly higher
- ability to recruit T cells (CD3^+ T-cells): retain their ability to recruit T cells
- cytotoxicity for E. coli ATCC43827 in the radial diffusion assay [3]: less cytotoxic than unmodified HNP-1
